First the molecules themselves.
T1: FcγRIIa H (FcγRIIa type H, His at position 131), extracellular domain with C-terminal His tag (human, UniProt P12318 34-217)
T1 construct: extracellular domain; also called FcgRIIa H; 2aH
T1 sequence (looked up): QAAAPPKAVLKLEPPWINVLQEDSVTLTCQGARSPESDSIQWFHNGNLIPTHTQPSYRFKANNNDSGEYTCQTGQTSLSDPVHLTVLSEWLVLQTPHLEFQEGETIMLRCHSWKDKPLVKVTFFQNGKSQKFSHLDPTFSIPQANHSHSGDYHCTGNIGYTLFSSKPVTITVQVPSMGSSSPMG

T2: FcγRIIa H (human, UniProt P12318 34-217)
T2 construct: extracellular domain; also called FcgRIIa H; FcγRIIa type H
T2 sequence (looked up): T1 sequence (looked up)

T3: FcγRIIb (human, UniProt P31994 43-217)
T3 construct: extracellular domain; also called FcgRIIb; 2b
T3 sequence (looked up): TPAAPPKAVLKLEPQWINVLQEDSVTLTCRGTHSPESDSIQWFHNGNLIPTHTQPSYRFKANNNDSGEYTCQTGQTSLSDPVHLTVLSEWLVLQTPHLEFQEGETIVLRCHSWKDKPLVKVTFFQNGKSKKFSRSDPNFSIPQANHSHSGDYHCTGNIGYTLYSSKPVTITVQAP

T4: FcγRIIb (human, UniProt P31994 43-217)
T4 construct: extracellular domain; also called FcgRIIb; 2b; not shown: His tag at the C terminus
T4 sequence (looked up): T3 sequence (looked up)

T5: FcγRIIa R (human, UniProt P12318 34-217)
T5 construct: extracellular domain; also called FcgRIIa R type; 2aR; not shown: His tag at the C terminus
T5 sequence (looked up): T1 sequence (looked up) with H134R

B1: GpH7-B3 variant I332_02A/GpL16-k0 (antibody, human IgG1, kappa)
heavy: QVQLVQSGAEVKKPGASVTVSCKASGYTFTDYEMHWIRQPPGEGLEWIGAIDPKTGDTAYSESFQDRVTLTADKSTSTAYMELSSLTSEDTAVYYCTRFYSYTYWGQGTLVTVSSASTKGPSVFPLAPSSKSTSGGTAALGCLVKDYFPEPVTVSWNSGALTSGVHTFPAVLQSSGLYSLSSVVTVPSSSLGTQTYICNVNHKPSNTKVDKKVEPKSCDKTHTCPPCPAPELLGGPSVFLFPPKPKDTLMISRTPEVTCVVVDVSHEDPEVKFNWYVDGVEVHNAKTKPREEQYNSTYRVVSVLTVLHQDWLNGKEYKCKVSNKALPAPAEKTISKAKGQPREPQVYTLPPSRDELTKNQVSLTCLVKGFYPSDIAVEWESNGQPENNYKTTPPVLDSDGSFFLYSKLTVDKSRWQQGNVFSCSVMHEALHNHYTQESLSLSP
light: DIVMTQSPLSLPVTPGEPASISCQASESLVHSNRNTYLHWYLQKPGQSPQLLIYKVSNRFSGVPDRFSGSGSGTDFTLKISRVEAEDVGVYYCSQNTHVPPTFGQGTKVEIERTVAAPSVFIFPPSDEQLKSGTASVVCLLNNFYPREAKVQWKVDNALQSGNSQESVTEQDSKDSTYSLSSTLTLSKADYEKHKVYACEVTHQGLSSPVTKSFNRGEC
notes: both H chains mutated; also called Ho Ab
B2: GpH7-B3 variant H268_09D/GpL16-k0 (antibody, human IgG1, kappa)
heavy: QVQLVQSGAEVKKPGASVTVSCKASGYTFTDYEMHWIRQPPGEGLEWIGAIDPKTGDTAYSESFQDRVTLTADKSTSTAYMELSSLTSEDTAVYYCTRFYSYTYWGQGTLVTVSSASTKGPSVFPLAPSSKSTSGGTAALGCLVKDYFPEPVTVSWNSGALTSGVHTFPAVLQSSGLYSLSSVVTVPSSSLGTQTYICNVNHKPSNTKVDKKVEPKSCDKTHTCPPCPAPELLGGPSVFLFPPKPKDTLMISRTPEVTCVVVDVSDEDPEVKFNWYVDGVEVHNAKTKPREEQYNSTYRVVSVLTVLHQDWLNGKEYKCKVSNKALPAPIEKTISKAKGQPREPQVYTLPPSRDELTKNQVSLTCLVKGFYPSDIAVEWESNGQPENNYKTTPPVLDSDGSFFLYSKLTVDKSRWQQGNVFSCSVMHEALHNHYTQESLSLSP
light: B1 light
notes: as for B1
B3: GpH7-B3 variant H268_10E/GpL16-k0 (antibody, human IgG1, kappa)
heavy: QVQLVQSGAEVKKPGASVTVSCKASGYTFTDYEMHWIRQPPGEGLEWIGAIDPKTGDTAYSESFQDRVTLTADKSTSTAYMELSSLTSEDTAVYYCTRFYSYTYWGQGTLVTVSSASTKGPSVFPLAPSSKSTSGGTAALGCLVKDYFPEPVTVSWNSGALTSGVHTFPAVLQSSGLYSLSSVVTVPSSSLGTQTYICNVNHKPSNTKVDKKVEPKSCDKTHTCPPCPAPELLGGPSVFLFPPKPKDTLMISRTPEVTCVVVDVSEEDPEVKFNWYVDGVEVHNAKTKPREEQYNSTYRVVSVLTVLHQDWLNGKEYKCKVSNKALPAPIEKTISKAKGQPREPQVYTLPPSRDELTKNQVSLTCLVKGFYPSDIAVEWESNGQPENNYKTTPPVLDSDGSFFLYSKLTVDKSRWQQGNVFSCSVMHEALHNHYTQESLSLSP
light: B1 light
notes: as for B1
B4: GpH7-B3 variant G236_07I/GpL16-k0 (antibody, human IgG1, kappa)
heavy: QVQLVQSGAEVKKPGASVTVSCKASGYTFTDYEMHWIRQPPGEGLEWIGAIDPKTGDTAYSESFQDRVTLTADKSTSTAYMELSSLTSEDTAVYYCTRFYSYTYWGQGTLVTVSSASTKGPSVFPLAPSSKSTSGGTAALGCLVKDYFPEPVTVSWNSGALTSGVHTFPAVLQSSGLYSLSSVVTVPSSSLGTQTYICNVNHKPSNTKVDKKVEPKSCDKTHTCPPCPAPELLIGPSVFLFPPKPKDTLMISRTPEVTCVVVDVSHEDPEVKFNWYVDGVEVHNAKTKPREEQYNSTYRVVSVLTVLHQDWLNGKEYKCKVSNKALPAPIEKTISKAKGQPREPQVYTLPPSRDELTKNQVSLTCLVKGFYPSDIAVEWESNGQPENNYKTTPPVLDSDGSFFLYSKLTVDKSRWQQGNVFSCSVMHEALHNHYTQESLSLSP
light: B1 light
notes: as for B1
B5: GpH7-B3 variant H268_13S/GpL16-k0 (antibody, human IgG1, kappa)
heavy: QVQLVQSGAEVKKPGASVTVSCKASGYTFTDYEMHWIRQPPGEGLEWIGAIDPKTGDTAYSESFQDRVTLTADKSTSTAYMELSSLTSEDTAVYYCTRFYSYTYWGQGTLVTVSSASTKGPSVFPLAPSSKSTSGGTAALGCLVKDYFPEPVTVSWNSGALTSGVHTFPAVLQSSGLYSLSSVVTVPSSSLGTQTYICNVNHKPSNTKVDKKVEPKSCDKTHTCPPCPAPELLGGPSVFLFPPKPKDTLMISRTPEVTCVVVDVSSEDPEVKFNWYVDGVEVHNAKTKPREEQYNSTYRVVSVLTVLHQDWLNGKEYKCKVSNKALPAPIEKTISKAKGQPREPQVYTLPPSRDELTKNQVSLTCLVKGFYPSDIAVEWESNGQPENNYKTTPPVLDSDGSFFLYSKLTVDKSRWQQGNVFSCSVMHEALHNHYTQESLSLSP
light: B1 light
notes: as for B1
B6: GpH7-B3 variant I332_04F/GpL16-k0 (antibody, human IgG1, kappa)
heavy: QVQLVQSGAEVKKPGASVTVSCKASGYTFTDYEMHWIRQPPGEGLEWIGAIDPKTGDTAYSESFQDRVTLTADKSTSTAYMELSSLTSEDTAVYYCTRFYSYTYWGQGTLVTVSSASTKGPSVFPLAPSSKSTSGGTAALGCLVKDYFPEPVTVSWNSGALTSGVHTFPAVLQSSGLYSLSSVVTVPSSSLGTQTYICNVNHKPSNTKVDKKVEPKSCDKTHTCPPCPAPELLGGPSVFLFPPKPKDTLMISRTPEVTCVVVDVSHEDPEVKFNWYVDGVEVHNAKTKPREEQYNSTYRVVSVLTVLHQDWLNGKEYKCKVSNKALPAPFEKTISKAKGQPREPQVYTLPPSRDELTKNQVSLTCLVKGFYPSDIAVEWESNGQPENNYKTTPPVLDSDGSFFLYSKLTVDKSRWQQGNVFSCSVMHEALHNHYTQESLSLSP
light: B1 light
notes: as for B1
B7: GpH7-B3 variant H268_18N/GpL16-k0 (antibody, human IgG1, kappa)
heavy: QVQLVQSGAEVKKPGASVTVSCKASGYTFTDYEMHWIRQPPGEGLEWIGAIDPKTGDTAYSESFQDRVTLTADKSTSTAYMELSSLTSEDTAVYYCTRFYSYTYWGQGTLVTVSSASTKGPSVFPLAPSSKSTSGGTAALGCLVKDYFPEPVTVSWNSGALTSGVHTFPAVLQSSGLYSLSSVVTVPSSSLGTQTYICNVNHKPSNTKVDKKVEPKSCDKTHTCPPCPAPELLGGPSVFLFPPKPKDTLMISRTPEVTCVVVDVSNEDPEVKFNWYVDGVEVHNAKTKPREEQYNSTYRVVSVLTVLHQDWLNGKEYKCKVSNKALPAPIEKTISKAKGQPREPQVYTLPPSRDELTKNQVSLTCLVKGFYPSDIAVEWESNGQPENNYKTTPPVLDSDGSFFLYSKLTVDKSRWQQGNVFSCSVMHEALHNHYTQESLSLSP
light: B1 light
notes: as for B1
B8: GpH7-B3 variant I332_06M/GpL16-k0 (antibody, human IgG1, kappa)
heavy: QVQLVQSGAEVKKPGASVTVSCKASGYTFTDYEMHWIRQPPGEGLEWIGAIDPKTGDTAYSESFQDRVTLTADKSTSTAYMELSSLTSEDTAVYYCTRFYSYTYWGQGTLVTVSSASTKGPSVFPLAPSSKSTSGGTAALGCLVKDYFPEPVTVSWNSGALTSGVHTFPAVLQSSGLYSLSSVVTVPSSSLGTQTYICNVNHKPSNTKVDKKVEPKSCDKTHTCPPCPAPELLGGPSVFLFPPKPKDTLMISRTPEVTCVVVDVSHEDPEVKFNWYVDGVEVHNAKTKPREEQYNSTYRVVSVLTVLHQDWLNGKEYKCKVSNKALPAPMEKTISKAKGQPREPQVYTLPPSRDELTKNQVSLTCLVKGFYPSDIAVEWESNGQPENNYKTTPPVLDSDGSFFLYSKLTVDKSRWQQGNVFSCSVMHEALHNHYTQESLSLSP
light: B1 light
notes: as for B1
B9: GpH7-B3 variant G236_03V/GpL16-k0 (antibody, human IgG1, kappa)
heavy: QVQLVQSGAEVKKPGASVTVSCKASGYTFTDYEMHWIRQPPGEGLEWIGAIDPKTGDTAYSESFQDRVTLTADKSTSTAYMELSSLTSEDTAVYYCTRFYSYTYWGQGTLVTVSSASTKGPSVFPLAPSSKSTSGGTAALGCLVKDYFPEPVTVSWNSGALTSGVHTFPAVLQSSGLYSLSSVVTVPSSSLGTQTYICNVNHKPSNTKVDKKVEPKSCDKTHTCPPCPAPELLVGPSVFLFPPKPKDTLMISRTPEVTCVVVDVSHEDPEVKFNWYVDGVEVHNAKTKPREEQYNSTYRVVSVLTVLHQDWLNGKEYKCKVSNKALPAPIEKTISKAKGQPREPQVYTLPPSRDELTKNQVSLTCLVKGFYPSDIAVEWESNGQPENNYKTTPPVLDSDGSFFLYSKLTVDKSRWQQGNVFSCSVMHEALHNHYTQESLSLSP
light: B1 light
notes: as for B1
B10: GpH7-B3 variant A330_12R/GpL16-k0 (antibody, human IgG1, kappa)
heavy: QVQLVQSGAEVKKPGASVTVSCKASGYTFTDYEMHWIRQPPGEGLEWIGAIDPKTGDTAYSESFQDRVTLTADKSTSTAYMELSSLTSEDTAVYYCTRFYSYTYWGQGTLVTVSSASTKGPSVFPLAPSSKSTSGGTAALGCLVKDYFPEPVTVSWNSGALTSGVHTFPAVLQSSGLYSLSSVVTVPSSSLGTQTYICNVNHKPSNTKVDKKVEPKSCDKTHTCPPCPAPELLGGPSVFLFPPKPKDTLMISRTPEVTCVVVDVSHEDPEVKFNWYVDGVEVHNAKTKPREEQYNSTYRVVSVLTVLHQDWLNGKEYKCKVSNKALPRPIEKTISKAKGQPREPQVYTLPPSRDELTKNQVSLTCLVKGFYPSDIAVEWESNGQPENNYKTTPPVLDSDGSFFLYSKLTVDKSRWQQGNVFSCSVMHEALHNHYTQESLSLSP
light: B1 light
notes: as for B1
B11: GpH7-B3 variant I332_03V/GpL16-k0 (antibody, human IgG1, kappa)
heavy: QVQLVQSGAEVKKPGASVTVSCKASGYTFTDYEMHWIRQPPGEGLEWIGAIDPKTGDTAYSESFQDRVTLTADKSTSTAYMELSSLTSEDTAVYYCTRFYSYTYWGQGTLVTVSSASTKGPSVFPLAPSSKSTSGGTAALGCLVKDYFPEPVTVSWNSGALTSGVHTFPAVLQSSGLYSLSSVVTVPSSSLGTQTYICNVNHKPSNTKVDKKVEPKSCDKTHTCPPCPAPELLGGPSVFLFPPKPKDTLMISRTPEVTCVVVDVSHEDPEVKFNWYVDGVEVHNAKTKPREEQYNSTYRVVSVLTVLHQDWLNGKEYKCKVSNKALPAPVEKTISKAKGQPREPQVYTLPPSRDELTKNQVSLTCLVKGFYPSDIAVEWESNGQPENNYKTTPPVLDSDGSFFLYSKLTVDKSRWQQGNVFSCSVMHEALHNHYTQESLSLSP
light: B1 light
notes: as for B1
B12: GpH7-B3 variant G236_10E/GpL16-k0 (antibody, human IgG1, kappa)
heavy: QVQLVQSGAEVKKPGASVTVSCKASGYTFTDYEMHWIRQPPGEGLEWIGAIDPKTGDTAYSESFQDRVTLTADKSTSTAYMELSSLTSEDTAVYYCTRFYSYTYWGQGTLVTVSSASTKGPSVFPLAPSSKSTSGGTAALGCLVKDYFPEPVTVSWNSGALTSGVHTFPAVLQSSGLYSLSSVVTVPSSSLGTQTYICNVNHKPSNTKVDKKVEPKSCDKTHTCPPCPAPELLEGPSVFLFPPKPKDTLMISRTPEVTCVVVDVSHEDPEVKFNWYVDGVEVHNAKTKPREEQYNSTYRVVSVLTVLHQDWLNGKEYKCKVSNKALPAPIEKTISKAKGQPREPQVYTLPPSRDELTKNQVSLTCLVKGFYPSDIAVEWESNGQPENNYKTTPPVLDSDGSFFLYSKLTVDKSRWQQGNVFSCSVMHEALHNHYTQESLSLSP
light: B1 light
notes: as for B1
B13: GpH7-A5/GpH7-B3 variant Y296_20W/GpL16-k0 (antibody, human IgG1, kappa)
heavy 1: not shown
heavy 2: not shown
light: B1 light
notes: Heterodimerized antibody, alteration in one H chain only; also called He Ab Y296W
B14: GpH7-A5/GpH7-B3 variant Y300_19Q/GpL16-k0 (antibody, human IgG1, kappa)
heavy 1: not shown
heavy 2: not shown
light: B1 light
notes: Heterodimerized antibody, alteration in one H chain only; also called He Ab Y300Q
B15: GpH7-A5/GpH7-B3 variant Y300_10E/GpL16-k0 (antibody, human IgG1, kappa)
heavy 1: not shown
heavy 2: not shown
light: B1 light
notes: Heterodimerized antibody, alteration in one H chain only; also called He Ab Y300E
B16: GpH7-A5/GpH7-B3 variant A327_01G/GpL16-k0 (antibody, human IgG1, kappa)
heavy 1: not shown
heavy 2: not shown
light: B1 light
notes: Heterodimerized anti-glypican-3 IgG1; mutation in the GpH7-B3 chain only; also called He Ab
B17: GpH7-A5/GpH7-B3 variant Y300_19Q/GpL16-k0 (antibody, human IgG1, kappa)
heavy 1: not shown
heavy 2: not shown
light: B1 light
notes: as for B16
B18: GpH7-A5/GpH7-B3 variant L328_19Q/GpL16-k0 (antibody, human IgG1, kappa)
heavy 1: not shown
heavy 2: not shown
light: B1 light
notes: as for B16
B19: GpH7-A5/GpH7-B3 variant I332_02A/GpL16-k0 (antibody, human IgG1, kappa)
heavy 1: not shown
heavy 2: not shown
light: B1 light
notes: as for B16
B20: GpH7-A5/GpH7-B3 variant S239_03V/GpL16-k0 (antibody, human IgG1, kappa)
heavy 1: not shown
heavy 2: not shown
light: B1 light
notes: as for B16

Substitutions are numbered along the chain they refer to. Names may count otherwise.

The target in one test is T1, FcγRIIa H (FcγRIIa type H, His at …). As to the kind of experiment: SPR Biacore, relative binding, GpH7-B3/GpL16-k0 (HoCon Ab)=100. The method, then:
Analysis of interaction between objective antibody and the FcγR was carried out using Biacore T100 (GE Healthcare). HBS-EP+ (GE Healthcare) was used as the running buffer, and the measurement temperature was set to 25° C. Chips produced by immobilizing the antigen peptide by the amine coupling method to a Series S Sencor Chip CM5 (GE Healthcare), or alternatively, chips produced by allowing preliminarily biotinylated antigen peptides to interact with and immobilize onto a Series S Sensor Chip SA (certified) (GE Healthcare) were used. Antibodies of interest were captured onto an antigen peptide-immobilized chip, and allowed to interact to each FcγR diluted with running buffer. To regenerate and repeatedly use the chip, the antibodies captured on the chip were washed off by reacting 10 mM glycine-HCl, pH 1.5.
Consider B1, for which the Ho/Con_2aH is 119 % of control.
On the same count and under the same terms, the figure for B2 is 136 % of control; for B3 it is 126 % of control.
On to B4, for which the Ho/Con_2aH was 101 % of control.
The same measure, in the same setting: the figure for B5 is 114 % of control.
On the same count and under the same terms, the figure for B6 is 111 % of control.
On the same count and under the same terms, the figure for B7 is 110 % of control; for B8 it is 114 % of control.
Take B9: the Ho/Con_2aH was 111 % of control.
On the same count and under the same terms, under B10 stands 110 % of control; under B11, 106 % of control.
The same measure, in the same setting: under B12 stands 122 % of control.

A further test has as its target T2, FcγRIIa H. As to the kind of experiment: SPR (Biacore), antibody captured, FcγR analyte; binding relative to GpH7-A5/GpH7-B3/GpL16-k0 = 100. Background: In SPR one partner is held on a chip, and binding of the other changes the refractive index at the surface.
For the molecule B13, the He/Con_2aH is 97.6 % of control.
Same read-out and setting: the figure for B14 is 96.1 % of control; for B15 it is 97.2 % of control.

A further test deals with T3, FcγRIIb. The description is as above.
Take B13: the He/Con_2b was 103 % of control.
Still for that read-out and setting: the figure for B14 is 108 % of control; for B15 it is 134 % of control.

In the next test the target is T4, FcγRIIb. As to the kind of experiment: SPR, relative to GpH7-A5/GpH7-B3/GpL16-k0.
For B16, the He/Con_2b amounted to 116 control = 100.
The same measure, in the same setting: the figure for B17 is 108 control = 100; for B18 it is 105 control = 100; for B19 it is 103 control = 100.
Still for that read-out and setting: the figure for B20 is 108 control = 100.

A further test has as its target T5, FcγRIIa R. As to the kind of experiment: SPR, relative to GpH7-A5/GpH7-B3/GpL16-k0.
On to B16, for which the He/Con_2aR was determined as 98.2 control = 100.
On to B17, for which the He/Con_2aR came out at 99.7 control = 100.
Same read-out and setting: the figure for B18 is 89.3 control = 100.
Still for that read-out and setting: the figure for B19 is 97.6 control = 100.
Same read-out and setting: under B20 stands 99.9 control = 100.

Source of the values: patent US20150344570A1 (published 2015).
